From PMC3592466 (Nucleic Acids Research, 2012)

Biological target: T1, BcgI A subunit, E53A mutant (UniProt Q07605 1-637, E53A)
T1 sequence (looked up): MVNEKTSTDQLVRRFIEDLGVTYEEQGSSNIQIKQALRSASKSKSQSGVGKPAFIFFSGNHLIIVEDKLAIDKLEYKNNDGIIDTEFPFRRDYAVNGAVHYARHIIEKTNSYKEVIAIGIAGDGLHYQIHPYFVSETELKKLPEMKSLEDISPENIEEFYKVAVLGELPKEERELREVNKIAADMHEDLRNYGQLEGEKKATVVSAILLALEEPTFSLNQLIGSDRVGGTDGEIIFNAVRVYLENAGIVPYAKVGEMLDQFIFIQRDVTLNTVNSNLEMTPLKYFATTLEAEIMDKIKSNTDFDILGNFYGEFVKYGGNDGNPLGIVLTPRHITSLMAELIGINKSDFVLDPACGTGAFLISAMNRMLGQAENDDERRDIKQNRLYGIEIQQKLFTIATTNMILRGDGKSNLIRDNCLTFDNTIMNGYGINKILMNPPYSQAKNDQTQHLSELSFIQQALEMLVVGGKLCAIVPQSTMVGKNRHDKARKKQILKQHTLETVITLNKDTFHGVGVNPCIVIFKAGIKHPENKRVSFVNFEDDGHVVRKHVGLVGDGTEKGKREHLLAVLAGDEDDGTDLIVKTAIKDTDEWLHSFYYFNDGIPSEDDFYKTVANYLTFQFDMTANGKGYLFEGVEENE
Assay: native MS

B1: BcgI B subunit (natural protein, UniProt Q07606 1-341, looked up)
chain: MNNLIKYSTFLISDLFDVVIGKTIDGNKAQRNENGTPYITRKATRNGFEFMIDGEKEKLYSGKLPVITIGNETSKPFVQEFHFFTGTKVNICIPKLDLNRNHLLYITTMIENATKMFSYSYTINSTRLKSLKILLPIKGEEPDWDYMNTYISKILSNMEKNFDVQQNDGVSDLRSLKDLSWSQFKMDEIFSINSGVRLTKADMKPGNIPFIGATDSNNGITEFTSSTNASFDGNVLGVNYNGSVVENFYHPYKAVFSDDVKRLKLKNYPNNKHVLLFMKVVILQQKVKYAYGYKFNATRMKEQIILLPTKADGTPDYEFMEQYMMRMENKVVGRTTEKEAD
- binding result: binds
